Measured values as given in patent US20260209316A1 (US Dept. of Health and Human Services, published 2026).
Where two headings read alike, the source gives them in different places.

Columns and labels:
[1] = molecular target: T1, mucin domain-deleted Sudan GP (GPdMuc) (Sudan virus (SUDV), UniProt Q7T9D9 33-632); assay: BLI competition on Sudan GPdMuc (lower table); competitor 15H10
T1 construct: also called Sudan GPdMuc; GP(S)dMuc

[2] = molecular target: T1, mucin domain-deleted Sudan GP (GPdMuc); assay: BLI competition on Sudan GPdMuc (lower table); competitor 16F6
[3] = molecular target: T1, mucin domain-deleted Sudan GP (GPdMuc); assay: BLI competition on Sudan GPdMuc (lower table); competitor mAb166
[4] = molecular target: T1, mucin domain-deleted Sudan GP (GPdMuc); assay: ELISA on coated GP
[5] = molecular target: T1, mucin domain-deleted Sudan GP (GPdMuc); assay: BLI competition on Sudan GPdMuc (lower table); competitor 316L
[6] = molecular target: T1, mucin domain-deleted Sudan GP (GPdMuc); assay: ELISA on coated GP; remark: listed apart in the source
[7] = molecular target: T2, mucin domain-deleted Zaire GP (GPdMuc) (Ebola (Zaire) virus (EBOV), UniProt Q05320 33-632); assay: ELISA on coated GP
T2 construct: also called Zaire GPdMuc; GP(Z)dMuc

B1: antibody 335S (antibody, V domains shown)
VH: EVQLVESGGGVVQPGRSLRLSCAASGFSFSNYAMHWVRQAPGKGLEWVAVTWYDGSSKYHADSVKGRFTISRDNSKNTLYLQMNSLRAEDTAVYYCARWGMGIVASPGNVLNYYYFMDVWGQGTTVIVSS
VL: SYELTQPPSVSVSPGQTARITCSGNPLPKKHTYWYQQKPGQAPVLMIYKDSERPSRIPERFSGSSSGTTVTLTISGVQAEDEADYYCQSADSTGIVVFGGGTKLTVL
- % inhibition of binding [1]: 8.78%
- % inhibition of binding [2]: 8.17%
- % inhibition of binding [3]: 80%
- EC50 [4]: 0.02 µg/mL
- % inhibition of binding [5]: 1.49%

B2: antibody 285S (antibody, V domains shown)
VH: QVQLVQSGAEVKKPGSSVKVSCKASGGTFSTYAITWVRQAPGQGLEWMGRIIPILRVANYAQKFQGRVTITADSSTSTAYMELSSLRSEDTAVYYCANLLAYCGGDCRSDYWGQGTLVTVSS
VL: EIVLTQSPGTLSLSPGERATLSCRASQSVKNSYLAWYHQKPGQAPRLLIYGASSRATGIPDRFSGSGSGTDFTLTISRLEPEDFAVYYCQQYGSSLWTFGQGTKVDVK
- % inhibition of binding [1]: 7.47%
- % inhibition of binding [2]: 3.29%
- % inhibition of binding [3]: 64.6%
- EC50 [4]: 0.02 µg/mL
- % inhibition of binding [5]: -6.78%

B3: antibody 382S (antibody, V domains shown)
VH: QVQLVQSGAEVKKPGSSVKVSCKASGGTFSNYGISWVRQAPGQGLEWMGRNIPIIGIANYAQKFQDRVTITADKSTSTVFMELRSLRYEDTAVYYCARDPLAARRGNWFDPWGQGTLVTVSS
VL: DIQMTQSPSTLSASVGDRVTITCRASQSVSSWLAWYQQKPGKAPKLLIYDASTLQSGVPSRFSGSGSGTEFTLTISSLQPDDFATYYCQQYNSYSYTFGQGTKLEIK
- % inhibition of binding [1]: 17.6%
- % inhibition of binding [2]: 13.6%
- % inhibition of binding [3]: 84.9%
- EC50 [4]: 0.26 µg/mL
- % inhibition of binding [5]: 10.7%

B4: antibody 365S (antibody, V domains shown)
VH: EVQLVESGGGLVQPGGSLRLSCAASGLTFSAYEMNWVRQAPGKGLEWVSHITTSGSAIYYADSVKGRFTISRDNAKNSLHLQMNRLRADDTAVYFCARDSTIVQCSGTSCHVSTYSYMDVWGKGTTVTVSS
VL: EIVLTQSPATLSLSPGERATLSCRASQSVTTYLAWYQHKPGQAPRLLIYDASKRATGIPARFSGSGSGTDFTLTISSLEPEDFAVYHCQQRSSWPPITFGQGTRLEIK
- % inhibition of binding [1]: 9.47%
- % inhibition of binding [2]: 12%
- % inhibition of binding [3]: 84.2%
- EC50 [4]: 0.06 µg/mL
- % inhibition of binding [5]: 5.16%

B5: antibody 405S (antibody, V domains shown)
VH: EVQLVESGGGLIQPGGSLRLSCAASGFTVSSHYMSWVRQAPGKGLEWVSGIYSGGRTHYADSVKGRFTISRDNSKNTLYLQMNSLRADDTAVYSCARGTLLYLYGMDVWGQGTTVTVSS
VL: QSVLTQPPSVSAAPGQRVTISCTGSSSNIGAGYNVHWYQQLPGAAPKLLIYGNTNRPSGVPDRFSGSKSGTSASLAITGLQAEDEADYYCQSFDSSLSGVFGTGTKVTVL
- % inhibition of binding [1]: 11.1%
- % inhibition of binding [2]: 10.1%
- % inhibition of binding [3]: 84.1%
- EC50 [4]: 0.04 µg/mL
- % inhibition of binding [5]: 7.24%

B6: antibody 102S (antibody, V domains shown)
VH: EVQLVESGGGLVQPGGSLRLSCSASGFTFHSYDMNWARQAPGKGLEWVSEISSSGQSKNYADSVRGRFTISRDNAKNSLYLQINSLRSEDTAVYYCARVGFVAKFGSDFSITHGTYYLDYWGQGTLVTVSS
VL: QLVLTQSPATLSLSPGERATLSCRASQSVSNYLAWYQQKPGQAPRLLIYDASNRAPGVPARFSGSGSGTDFSLTISSLEPEDFAVYYCLQRSNWPPWTFGQGTKVEIK
- % inhibition of binding [1]: 11.9%
- % inhibition of binding [2]: 19.4%
- % inhibition of binding [3]: 78.2%
- EC50 [4]: 0.09 µg/mL
- % inhibition of binding [5]: 10.3%

B7: antibody 578S (antibody, V domains shown)
VH: EVQLVESGGGVVQPGRSLRLSCAASGFTFSSYELHWVRQAPGKGLEWVAVISYDGSSKYYADSLKGRFTISRDNSKNTLSLQMNSLRAEDTAMYYCVRQSEAYCSDGRCDWRRALDIWGQGTMVTVSP
VL: DIQMTQSPSSLSASVGDRVTITCQASQDIKNYLNWYQQKPGKAPKLLIYDVSKLETGVPSRFSGSGSGTDFSFTISSLQPEDIATYYCQQYDNLPSYTFGQGTKLEIK
- % inhibition of binding [1]: 7.51%
- % inhibition of binding [2]: 11.1%
- % inhibition of binding [3]: 86.6%
- EC50 [4]: 0.09 µg/mL
- % inhibition of binding [5]: 7.8%

B8: antibody 191L (antibody, V domains shown)
VH: EVQLVESGGGLVQPGGSLRLSCAASGFTFSSYGIHWVRQAPGKGLEWVAIISYDGNKKFHADSVKDRFTISRDNSKNMLYLQMNNLKLEDTAVYYCARAYDSGYFAGSVFYYWGQGVLVTVSS
VL: EVVFTQPHSVSGSPGQTVTISCTRSSGSIDSEYVQWYQQRPGNAPTTVIYKDNQRPSGVPDRFSGSIDSSSNSASLAISGLKSEDEADYYCQSADGNYHPVFGEGTRLTVL
- EC50 [6]: 1.74 µg/mL
- EC50 [7]: 0.01 µg/mL

B9: antibody 206L (antibody, V domains shown)
VH: EVQLVESGGGVVQPGGSLRLSCAASGFTFDDYAMHWVRQAPGKGLEWVSGISWSGGNTYYADSVKGRFTVSRENAKNSLYLQMNRLRAEDTAFYNCARTSQGGAVVFSAPNYWGQGVLVTVSS
VL: QSVLTQAPSVSGAPGQRVTISCTGSSSNIGGYYVQWYQQLPGRAPKLLIYENNKRPSGVSDRFSGSRSASSASLTITGLQSEDEADYYCQSYDSRLNGYIFGGGTRLTVL
- EC50 [6]: 0.2 µg/mL
- EC50 [7]: 0.01 µg/mL

B10: antibody 231L (antibody, V domains shown)
VH: EVQLVESGGGLVQPGGSLRLSCAASAFTFDDYAMHWVRQAPGKGLEWVSGITWSGLSTYYADSVKGRFTISRDNAKNSLYLQMNSLRVEDTALYYCAKSGNNSPFSGLDSWGQGAVVTVSS
VL: QSVLTQPPSVSGAPGQRVTVSCTGSSSNIGAGSYVQWYQQLPGTAPKLLIYENNKRPSGVSDRFSGSKSGTSASLTITGLQSEDEADYYCQSYDSSLNAYIFGAGTRLTVL
- EC50 [6]: 0.02 µg/mL
- EC50 [7]: 0.01 µg/mL

B11: antibody 310L (antibody, V domains shown)
VH: EMQLVESGGGLVQPGGSLRLSCAASGFTFDAYAMHWVRQRPGKGLEWISGIIWSGRTTYYADSVKGRFTFSRDNSKNSLYLEMNSLKPEDTALYYCAKDSWNYGVYNSLDVWGRGILVTVSS
VL: QSVLTQPPSVSGAPGQRVTISCTGSSSNVGPHYVSWYQHLPGTTPKLLIFQDNKRPSGVSDRFSGSKSASSASLTITGLQTEDEADYYCLSYDSSLNVYIFGSGTRLTVL
- EC50 [6]: 0.34 µg/mL
- EC50 [7]: 0.01 µg/mL

B12: antibody 314L (antibody, V domains shown)
VH: EERLVESGGGLVQPGGSLRLSCAASGFTFGDYAMHWVRQVPGKSLEWLSGISWSGYTTYSADSVKGRFTISRDNAKNSLYLQMNRLRPEDTGLYYCVTLIGAIGIKDSLDVWGRGVLVTVSS
VL: EVVFTQPHSVSGSPGQMVTISCTRSSGTIDNSYVYWHQQRPGSAPTTVIYNDDQRPSGVPDRFSGSIDSSSNSASLTISGLKSEDEADYYCQSYDSSGWVFGGGTRLTVL
- EC50 [6]: 0.31 µg/mL
- EC50 [7]: 2.6 µg/mL

B13: antibody 315L (antibody, V domains shown)
VH: QVQLQESGPGLVKPSETLSLTCTVSGGSITGNYWTWVRQPPGKGLQYIGRFDAGGKTYYNPPLKSRVSILGDKSKNQVSLNLTSVTVADTGVYYCAREQWGQLLSGSFDVWGRGVLVTVSS
VL: SYELTQPPSVSVSPGQTARITCSGDALPDYYAHWYQQKSGQAPMLVIYKDTERPSGIPERFSGSSSGTTVSLTISGVQAEDEADYYCQSGDSSGNHWVFGGGTRLTVL
- EC50 [6]: 0.12 µg/mL
- EC50 [7]: 1.5 µg/mL
